Data as given in patent US20140329995A1.

Experiments:
[1] = target: Gammanorm 165 mg/ml (Octapharma), human polyclonal IgG (human); experiment: column breakthrough, ligand on agarose base matrix A, ligand density […], residence time 2.4 min, 1 mg/ml IgG
[2] = target: Gammanorm 165 mg/ml (Octapharma), human polyclonal IgG (human); experiment: column breakthrough, ligand on agarose base matrix A, ligand density […], residence time 10.0 min, 1 mg/ml IgG
[3] = target: Gammanorm 165 mg/ml (Octapharma), human polyclonal IgG (human); experiment: column breakthrough, ligand on agarose base matrix B, ligand density 11.3 mg/ml, residence time 6.0 min, 1 mg/ml IgG
[4] = target: Gammanorm 165 mg/ml (Octapharma), human polyclonal IgG (human); experiment: column breakthrough, ligand on agarose base matrix A, ligand density 14.5 mg/ml, residence time 6.0 min, 1 mg/ml IgG
[5] = target: Gammanorm 165 mg/ml (Octapharma), human polyclonal IgG (human); experiment: column breakthrough, ligand on agarose base matrix B, ligand density 11.3 mg/ml, residence time 2.4 min, 1 mg/ml IgG
[6] = target: Gammanorm 165 mg/ml (Octapharma), human polyclonal IgG (human); experiment: column breakthrough, ligand on agarose base matrix A, ligand density 14.5 mg/ml, residence time 2.4 min, 1 mg/ml IgG
[7] = target: Gammanorm 165 mg/ml (Octapharma), human polyclonal IgG (human); experiment: column breakthrough, ligand on agarose base matrix A, ligand density 14.5 mg/ml, residence time 10.0 min, 1 mg/ml IgG
[8] = target: Gammanorm 165 mg/ml (Octapharma), human polyclonal IgG (human); experiment: column breakthrough, ligand on agarose base matrix A, ligand density […], residence time 6.0 min, 1 mg/ml IgG

Qb10 (dynamic binding capacity at 10% breakthrough) [1]: 35.1 mg/ml resin
Qb80 (dynamic binding capacity at 80% breakthrough) [1]: 62.7 mg/ml resin
Qb10 (dynamic binding capacity at 10% breakthrough) [2]: 64.5 mg/ml resin
Qb80 (dynamic binding capacity at 80% breakthrough) [2]: 74.5 mg/ml resin
Qb10 (dynamic binding capacity at 10% breakthrough) [3]: 68 mg/ml resin
Qb80 (dynamic binding capacity at 80% breakthrough) [3]: 82.8 mg/ml resin
Qb10 (dynamic binding capacity at 10% breakthrough) [4]: 61.8 mg/ml resin
Qb80 (dynamic binding capacity at 80% breakthrough) [4]: 103 mg/ml resin
Qb10 (dynamic binding capacity at 10% breakthrough) [5]: 47 mg/ml resin
Qb80 (dynamic binding capacity at 80% breakthrough) [5]: 76.9 mg/ml resin
Qb10 (dynamic binding capacity at 10% breakthrough) [6]: 31.2 mg/ml resin
Qb80 (dynamic binding capacity at 80% breakthrough) [6]: 80.6 mg/ml resin
Qb10 (dynamic binding capacity at 10% breakthrough) [7]: 76.7 mg/ml resin
Qb80 (dynamic binding capacity at 80% breakthrough) [7]: 103 mg/ml resin
Qb10 (dynamic binding capacity at 10% breakthrough) [8]: 53.4 mg/ml resin
Qb80 (dynamic binding capacity at 80% breakthrough) [8]: 68.7 mg/ml resin
Substance: Mutant Z(N23T)6: ligand hexamer containing six copies of protein Z, each containing the N23T substitution (designed binder)
